The text below walks through data of article PMC7616679 (Nature, 2024).

The data set “cryo-EM structure” concerns the molecule itself. The experiment in a line: cryo-EM structure.
Data set [1] addresses T1, Recombinant Ce C19L1(1-277), untagged (C. elegans, UniProt O16216 1-277).
T1 sequence: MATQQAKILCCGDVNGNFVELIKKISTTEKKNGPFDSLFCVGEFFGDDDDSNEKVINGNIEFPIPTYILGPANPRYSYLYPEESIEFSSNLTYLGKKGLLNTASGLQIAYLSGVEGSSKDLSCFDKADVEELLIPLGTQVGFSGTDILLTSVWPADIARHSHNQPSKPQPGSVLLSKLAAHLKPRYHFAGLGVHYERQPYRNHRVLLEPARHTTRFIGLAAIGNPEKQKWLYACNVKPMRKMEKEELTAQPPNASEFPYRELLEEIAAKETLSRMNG
The data set can be described thus: pull-down.

For data set [2], the target named is Recombinant Ce DHX15 (10x-His-FLAG-3C-ceDHX15) (C. elegans, UniProt Q20875 1-739). The experiment in a line: pull-down.
Data set [3] has as its target T2, Recombinant Ce C19L1 full-length protein, untagged (C. elegans, UniProt O16216 1-533).
T2 sequence: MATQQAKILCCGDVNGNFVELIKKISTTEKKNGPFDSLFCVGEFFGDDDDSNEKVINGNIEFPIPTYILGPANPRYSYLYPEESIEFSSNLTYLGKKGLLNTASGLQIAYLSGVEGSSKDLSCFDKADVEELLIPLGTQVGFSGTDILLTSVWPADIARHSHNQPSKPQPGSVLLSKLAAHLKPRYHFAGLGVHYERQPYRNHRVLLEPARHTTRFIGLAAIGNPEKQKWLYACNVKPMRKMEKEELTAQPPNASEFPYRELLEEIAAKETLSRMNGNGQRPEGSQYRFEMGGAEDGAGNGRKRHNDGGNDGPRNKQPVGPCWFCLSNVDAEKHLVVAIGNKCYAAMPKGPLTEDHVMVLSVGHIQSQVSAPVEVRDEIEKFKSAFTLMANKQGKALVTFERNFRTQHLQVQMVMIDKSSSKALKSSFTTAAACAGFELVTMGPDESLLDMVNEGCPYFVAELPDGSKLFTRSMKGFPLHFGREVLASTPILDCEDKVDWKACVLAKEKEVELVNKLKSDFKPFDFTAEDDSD
The data set can be described thus: pull-down.

Chain of Recombinant Ce DHX15 (10x-His-FLAG-3C-ceDHX15) (Q20875 whole entry): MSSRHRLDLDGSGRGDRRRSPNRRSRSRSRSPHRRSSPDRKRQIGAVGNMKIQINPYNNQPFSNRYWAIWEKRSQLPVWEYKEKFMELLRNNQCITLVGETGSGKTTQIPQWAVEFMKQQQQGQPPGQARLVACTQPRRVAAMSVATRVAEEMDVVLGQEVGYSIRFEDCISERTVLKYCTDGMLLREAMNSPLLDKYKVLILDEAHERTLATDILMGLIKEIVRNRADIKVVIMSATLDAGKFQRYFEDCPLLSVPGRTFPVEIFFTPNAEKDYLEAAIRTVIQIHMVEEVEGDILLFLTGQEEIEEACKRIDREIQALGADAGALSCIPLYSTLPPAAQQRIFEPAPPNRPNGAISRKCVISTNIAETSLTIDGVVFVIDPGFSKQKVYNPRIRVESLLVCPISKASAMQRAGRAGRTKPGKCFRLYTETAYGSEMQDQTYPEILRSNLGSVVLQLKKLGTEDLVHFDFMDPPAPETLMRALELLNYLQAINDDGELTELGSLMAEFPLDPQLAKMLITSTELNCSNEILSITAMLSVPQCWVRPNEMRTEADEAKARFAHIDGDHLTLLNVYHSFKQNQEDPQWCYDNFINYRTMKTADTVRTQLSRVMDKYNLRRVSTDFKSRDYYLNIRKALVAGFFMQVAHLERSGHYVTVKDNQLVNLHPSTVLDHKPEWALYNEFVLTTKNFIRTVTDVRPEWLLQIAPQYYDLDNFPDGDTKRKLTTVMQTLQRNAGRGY

B1: 3xFLAG-PRP19 (C. elegans, prp-19) (natural protein)
chain: MSFVCGISGELTEDPVVSQVSGHIFDRRLIVKFIAENGTDPISHGELSEDQLVSLKSGGTGSAPRNVSGTSIPSLLKMLQDEWDTVMLNSFSLRQQLQIARQELSHSLYQHDAACRVISRLSKELTAAREALSTLKPHTSAKVDDDVSIDESEDQQGLSEAILAKLEEKSKSLTAERKQRGKNLPEGLAKTEELAELKQTASHTGIHSTGTPGITALDIKGNLSLTGGIDKTVVLYDYEKEQVMQTFKGHNKKINAVVLHPDNITAISASADSHIRVWSATDSSSKAIIDVHQAPVTDISLNASGDYILSASDDSYWAFSDIRSGKSLCKVSVEPGSQIAVHSIEFHPDGLIFGTGAADAVVKIWDLKNQTVAAAFPGHTAAVRSIAFSENGYYLATGSEDGEVKLWDLRKLKNLKTFANEEKQPINSLSFDMTGTFLGIGGQKVQVLHVKSWSEVVSLSDHSGPVTGVRFGENARSLVTCSLDKSLRVFSF
Usually stoichiometry N stands for a count of units in the complex or per binding partner. B1: the “stoichiometry N” value in the data set “cryo-EM structure” worked out at 4.

In the case of fluorescein-SMNKGNISFVRGAGKTVQQNTTENPDEIDLD-biotin [ceSYF1(788-818)-wildtype peptide], the binding result in data set [1] and in data set [2] was “binds” in each case.

Regarding fluorescein-EDEKNKLSAKILKAEMKGDTDLVKKLKRKLESM-biotin [ceC19L2(75-106)-wildtype peptide], the binding result in data set [3] is listed as “binds”.
